Two molecules from publication PMC3254608, “Inscuteable Regulates the Pins-Mud Spindle Orientation Pathway” (PLoS ONE, 2012) can be followed below.

Test [1] addresses T1, Pins TPR (residues 42-398), soluble (Drosophila, UniProt Q9VB22 42-398).
T1 construct: Partner of Inscuteable (Pins), Drosophila, residues 42-398, the TPR domain; it may be a hexahistidine fusion (pBH vector); also called Pins TPRs; source: E. coli BL21(DE3), purified
T1 sequence (looked up): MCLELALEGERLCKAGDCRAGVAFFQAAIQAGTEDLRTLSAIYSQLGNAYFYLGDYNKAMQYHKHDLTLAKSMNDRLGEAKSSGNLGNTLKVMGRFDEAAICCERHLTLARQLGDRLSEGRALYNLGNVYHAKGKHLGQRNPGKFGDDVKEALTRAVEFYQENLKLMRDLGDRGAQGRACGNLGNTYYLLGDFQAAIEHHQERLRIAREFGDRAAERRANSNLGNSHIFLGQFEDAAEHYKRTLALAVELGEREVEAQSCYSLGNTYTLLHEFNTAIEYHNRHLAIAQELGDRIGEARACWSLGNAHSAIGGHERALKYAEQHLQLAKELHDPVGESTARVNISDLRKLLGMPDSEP
Put plainly: fluorescence polarisation; fluorescence anisotropy, competition: Inscuteable added to a pre-formed complex of 100 nM TMR-Mud and 1 uM Pins, binding buffer, 20°C. The conditions noted are these: both partners purified.

For test [2], the target named is TMR-Mud peptide (Mud residues 1955-1970 with an NH2-terminal cysteine, labelled with tetramethylrhodamine) (Drosophila). Put plainly: fluorescence polarisation; fluorescence anisotropy, direct titration: constant 100 nM TMR-Mud, increasing ligand, binding buffer, 20°C, fit to 1:1 binding.

B1: MBP-fusion of the central Ankyrin-repeat containing domain of Inscuteable (residues 252-600) (domain or fragment, Drosophila, UniProt Q24367 252-600, looked up)
chain: APPPYNNETVTFGATEQDESLQQQPSPLRVRSLRFTASTSTPKSGSKIAKRGKKHPEPVASWMSEQRWAGEPEVMCTLQHKSIAQEAYKNYTITTSAVCKLVRQLQQQALSLQVHFERSERVLSGLQASSLPEALAGATQLLSHLDDFTATLERRGVFFNDAKIERRRYEQHLEQIRTVSKDTRYSLERQHYINLESLLDDVQLLKRHTLITLRLIFERLVRVLVISIEQSQCDLLLRANINMVATLMNIDYDGFRSLSDAFVQNEAVRTLLVVVLDHKQSSVRALALRALATLCCAPQAINQLGSCGGIEIVRDILQVESAGERGAIERREAVSLLAQITAAWHGSEH
notes: Inscuteable (Insc), Drosophila, residues 252-600, including the central Ankyrin-repeat containing region; pMAL-c2 based vector; also called MBP-Insc; source: E. coli BL21(DE3), purified (amylose resin)
For the molecule B1, the dissociation constant (Kd) in test [1] stood at 5 µM.

B2: Pins TPR (residues 42-398), soluble (domain or fragment)
chain: T1 sequence (looked up)
For the molecule B2, the dissociation constant Kd in test [2] was found to be 1100 nM.
